{"source": "paper PMC9520026", "about": "“Densely methylated DNA traps Methyl-CpG–binding domain protein 2 but permits free diffusion by Methyl-CpG–binding domain protein 3”", "binders": {"B1": {"name": "17 bp mCpG biotin (SPR) (dsDNA)", "DNA 1": "CTGCCGCCGAGCGCCTC", "DNA 2": "GAGGCGCTCGGCGGCAG", "modifications": "5-methylcytosine at C8 of strand 1 and C9 of strand 2"}, "B2": {"name": "17 bp mCpG FAM (dsDNA)", "DNA 1": "CTGCCGCCGAGCGCCTC", "DNA 2": "GAGGCGCTCGGCGGCAG", "modifications": "5-methylcytosine at C8 of strand 1 and C9 of strand 2 (symmetric)"}, "B3": {"name": "17 bp CpG-free FAM (dsDNA)", "DNA 1": "CTGGCCCCAGGGCCCTC", "DNA 2": "GAGGGCCCTGGGGCCAG"}, "B4": {"name": "17 bp CpG biotin (SPR) (dsDNA)", "DNA 1": "CTGCCGCCGAGCGCCTC", "DNA 2": "GAGGCGCTCGGCGGCAG"}, "B5": {"name": "17 bp CpG FAM (unmethylated) (dsDNA)", "DNA 1": "CTGCCGCCGAGCGCCTC", "DNA 2": "GAGGCGCTCGGCGGCAG"}, "B6": {"name": "38 bp, first CpG methylated (dsDNA)", "DNA 1": "GGAGGCGCTCGGCGGCAGCCTGGAACGGAATTCTTCTA", "DNA 2": "TAGAAGAATTCCGTTCCAGGCTGCCGCCGAGCGCCTCC", "modifications": "5-methylcytosine at C10 of strand 1 and C28 of strand 2"}, "B7": {"name": "38 bp, second CpG methylated (dsDNA)", "DNA 1": "B6 DNA 1", "DNA 2": "B6 DNA 2", "modifications": "5-methylcytosine at C26 of strand 1 and C12 of strand 2"}, "B8": {"name": "38 bp, both CpG methylated (dsDNA)", "DNA 1": "B6 DNA 1", "DNA 2": "B6 DNA 2", "modifications": "5-methylcytosine at C10, C26 of strand 1 and C12, C28 of strand 2"}}, "key": {"[1]": {"target": "T1, MBD3sc (human, UniProt O95983 1-249+Q86YP4:137-178, internal_change)", "T1 sequence (O95983 other isoform, or with tags, fused parts or gaps)": "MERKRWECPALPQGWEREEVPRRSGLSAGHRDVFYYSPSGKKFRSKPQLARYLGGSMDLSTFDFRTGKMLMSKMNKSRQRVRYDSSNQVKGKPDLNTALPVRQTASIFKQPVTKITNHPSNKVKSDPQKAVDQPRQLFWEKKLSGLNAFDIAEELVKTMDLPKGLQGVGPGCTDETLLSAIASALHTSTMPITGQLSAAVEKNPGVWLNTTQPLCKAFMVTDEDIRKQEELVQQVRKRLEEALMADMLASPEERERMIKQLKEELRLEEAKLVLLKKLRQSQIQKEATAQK", "assay": "SPR; FA: 50 mM Hepes pH 7.5, 100 mM NaCl, 1 mM MgCl2, 10 nM DNA, temperature not stated; SPR: 50 mM Hepes pH 7.5, 150 mM NaCl, 1 mM MgCl2, 1 mM TCEP, 0.05% Tween-20; NMR: 10 mM NaPO4 pH 6.5, 150 mM NaCl, 1 mM DTT, 10% 2H2O, 25 C", "conditions": "protein: recombinant; tags: N-terminal thioredoxin-His6-TEV site (removal stated only for NMR); blunt"}, "[2]": {"target": "T2, MBD2sc (human, UniProt Q9UBB5 150-393+Q86YP4:137-178, internal_change)", "T2 sequence (Q9UBB5 other isoform, or with tags, fused parts or gaps)": "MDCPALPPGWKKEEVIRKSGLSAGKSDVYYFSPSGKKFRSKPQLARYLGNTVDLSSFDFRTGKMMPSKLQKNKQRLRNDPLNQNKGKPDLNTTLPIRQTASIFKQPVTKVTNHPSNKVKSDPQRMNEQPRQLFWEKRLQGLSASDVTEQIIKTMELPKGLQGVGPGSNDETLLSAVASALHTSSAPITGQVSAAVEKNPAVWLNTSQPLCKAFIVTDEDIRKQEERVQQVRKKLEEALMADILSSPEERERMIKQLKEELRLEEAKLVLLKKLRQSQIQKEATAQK", "assay": "SPR; FA: 50 mM Hepes pH 7.5, 100 mM NaCl, 1 mM MgCl2, 10 nM DNA, temperature not stated; SPR: 50 mM Hepes pH 7.5, 150 mM NaCl, 1 mM MgCl2, 1 mM TCEP, 0.05% Tween-20; NMR: 10 mM NaPO4 pH 6.5, 150 mM NaCl, 1 mM DTT, 10% 2H2O, 25 C", "conditions": "protein: recombinant; tags: N-terminal thioredoxin-His6-TEV site (removal stated only for NMR); blunt"}, "[3]": {"target": "T1, MBD3sc", "assay": "fluorescence anisotropy; FA: 50 mM Hepes pH 7.5, 100 mM NaCl, 1 mM MgCl2, 10 nM DNA, temperature not stated; SPR: 50 mM Hepes pH 7.5, 150 mM NaCl, 1 mM MgCl2, 1 mM TCEP, 0.05% Tween-20; NMR: 10 mM NaPO4 pH 6.5, 150 mM NaCl, 1 mM DTT, 10% 2H2O, 25 C", "conditions": "protein: recombinant; tags: N-terminal thioredoxin-His6-TEV site (removal stated only for NMR); label: 5' 6-FAM on strand 1; blunt"}, "[4]": {"target": "T2, MBD2sc", "assay": "fluorescence anisotropy; FA: 50 mM Hepes pH 7.5, 100 mM NaCl, 1 mM MgCl2, 10 nM DNA, temperature not stated; SPR: 50 mM Hepes pH 7.5, 150 mM NaCl, 1 mM MgCl2, 1 mM TCEP, 0.05% Tween-20; NMR: 10 mM NaPO4 pH 6.5, 150 mM NaCl, 1 mM DTT, 10% 2H2O, 25 C", "conditions": "protein: recombinant; tags: N-terminal thioredoxin-His6-TEV site (removal stated only for NMR); label: 5' 6-FAM on strand 1; blunt"}, "[5]": {"target": "T3, MBD2sc (2H,15N, tag cleaved) (human, UniProt Q9UBB5 150-393+Q86YP4:137-178, internal_change)", "T3 sequence (Q9UBB5 other isoform, or with tags, fused parts or gaps)": "as above", "assay": "NMR; FA: 50 mM Hepes pH 7.5, 100 mM NaCl, 1 mM MgCl2, 10 nM DNA, temperature not stated; SPR: 50 mM Hepes pH 7.5, 150 mM NaCl, 1 mM MgCl2, 1 mM TCEP, 0.05% Tween-20; NMR: 10 mM NaPO4 pH 6.5, 150 mM NaCl, 1 mM DTT, 10% 2H2O, 25 C", "conditions": "protein: recombinant; tags: none (thioredoxin-His6 removed by TEV); blunt"}, "[6]": {"target": "T3, MBD2sc (2H,15N, tag cleaved)", "assay": "NMR; fast exchange between both sites; FA: 50 mM Hepes pH 7.5, 100 mM NaCl, 1 mM MgCl2, 10 nM DNA, temperature not stated; SPR: 50 mM Hepes pH 7.5, 150 mM NaCl, 1 mM MgCl2, 1 mM TCEP, 0.05% Tween-20; NMR: 10 mM NaPO4 pH 6.5, 150 mM NaCl, 1 mM DTT, 10% 2H2O, 25 C", "conditions": "protein: recombinant; tags: none (thioredoxin-His6 removed by TEV); blunt"}}, "data": [{"binder": "B1", "values": [{"measurement": "Kd", "setting": "[1]", "result": "1200 ± 200", "unit": "nM"}, {"measurement": "Kd", "setting": "[2]", "result": "11 ± 1", "unit": "nM"}]}, {"binder": "B2", "values": [{"measurement": "Kd", "setting": "[3]", "result": "5900 ± 400", "unit": "nM"}, {"measurement": "Kd", "setting": "[4]", "result": "7 ± 2", "unit": "nM"}]}, {"binder": "B3", "values": [{"measurement": "Kd", "setting": "[3]", "result": "14200 ± 300", "unit": "nM"}, {"measurement": "Kd", "setting": "[4]", "result": "9100 ± 400", "unit": "nM"}]}, {"binder": "B4", "values": [{"measurement": "Kd", "setting": "[1]", "result": "1020 ± 10", "unit": "nM"}, {"measurement": "Kd", "setting": "[2]", "result": "1240 ± 80", "unit": "nM"}]}, {"binder": "B5", "values": [{"measurement": "Kd", "setting": "[3]", "result": "8100 ± 400", "unit": "nM"}, {"measurement": "Kd", "setting": "[4]", "result": "2800 ± 100", "unit": "nM"}]}, {"binder": "B6", "values": [{"measurement": "binding result", "setting": "[5]", "result": "binds"}]}, {"binder": "B7", "values": [{"measurement": "binding result", "setting": "[5]", "result": "binds"}]}, {"binder": "B8", "values": [{"measurement": "binding result", "setting": "[6]", "result": "binds"}]}]}
